Results reported in patent publication US5831003A, “Peptides which bind to prothrombin and thrombin” (Bayer Corporation, priority 1996, dated 1998).
Ends that are not written are not given here.

Tests used:
α-thrombin [1] = target: T1, α-thrombin (Homo sapiens, UniProt P00734); test: Confirmatory binding assay in column chromatographic format, peptides synthesized on A-Totda-Toyopearl; conditions: for binding of thrombin to peptide resin (in words): summary of Table 2; for dose dependence of thrombin in the acid eluant (in words): 50, 100 and 200 μg α-thrombin
T1 construct: α-Thrombin is the active form of the plasma serine protease zymogen, prothrombin; purchased Enzyme Research Labs (South Bend, Ind.)
Method: Confirmatory binding assays were performed in a column chromatographic format on a microbore HPLC using individual peptide sequences synthesized directly onto the Toyopearl 650 M Chelate resin which had been modified with Totda followed by an alanine residue (A-Totda-Toyopearl), at a final substitution density of 0.2 mmol/g resin. […] The endpoint was a dose-dependent increase in the acid eluate in the thrombin contactings, and quantification was by integration of the absorbance at 280 nm.

α-thrombin [2] = target: T1, α-thrombin; test: Purification of α-thrombin from activated PTC eluate on YFPGPYL-Totda-Toyopearl; format: binding
Method: Human pooled plasma was processed to PTC eluate by standard manufacturing procedures as indicated in Example 1. A sample of the PTC eluate was activated in the presence of 50 mM CaCl2 for 6 days at 4° C. Approximately 1 ml of the activated PTC eluate, spiked with 300 μg α-thrombin, was injected onto the peptide resin YFPGPYL-Totda-Toyopearl (FIG. 6). The column was washed with equilibration buffer (10 mM HEPES, pH 6.5, 10 mM CaCl2, 500 mM NaCl, 0.1% (v/v) PEG-400) until the A280 returned to base-line. […] Acid treatment (2% acetic acid) was used as a cleaning step to remove protein still bound to the column.

[3] = 50 μg α-thrombin applied, integration of A280
[4] = 100 μg α-thrombin applied, integration of A280
[5] = 200 μg α-thrombin applied, integration of A280

| Substance | Absorbance, 280 nm 1M NaCl Eluate (α-thrombin [1]; [3]) | Absorbance, 280 nm 2% Acetic Acid (α-thrombin [1]; [3]) | Absorbance, 280 nm 1M NaCl Eluate (α-thrombin [1]; [4]) | Absorbance, 280 nm 2% Acetic Acid (α-thrombin [1]; [4]) | Absorbance, 280 nm 1M NaCl Eluate (α-thrombin [1]; [5]) | Absorbance, 280 nm 2% Acetic Acid (α-thrombin [1]; [5]) | binding of thrombin to peptide resin (in words) (α-thrombin [1]) | dose dependence of thrombin in the acid eluant (in words) (α-thrombin [1]) | Absorbance, 280 nm 2% Acetic Acid (α-thrombin [1]; 50 μg α-thrombin applied in a solution containing 5 mg/ml hSA) | Absorbance, 280 nm 2% Acetic Acid (α-thrombin [1]; 100 μg α-thrombin applied in a solution containing 5 mg/ml hSA) | Absorbance, 280 nm 2% Acetic Acid (α-thrombin [1]; 200 μg α-thrombin applied in a solution containing 5 mg/ml hSA) | thrombin content of protein released by 1 mM sodium citrate pH 7.0 (α-thrombin [2]; quantitative scanning of SDS-PAGE, activated PTC eluate spiked with 300 μg α-thrombin) | binding of thrombin from activated PTC eluate (in words) (α-thrombin [2]; released by 1 mM sodium citrate pH 7.0) |
| --- | --- | --- | --- | --- | --- | --- | --- | --- | --- | --- | --- | --- | --- |
| ERPYHG (not fully specified (C-terminus)) [peptide synthesized on A-Totda-Toyopearl resin] | 0.00 | 0.00 | 0.18 | 0.00 | 0.69 | 0.00 | not | – | – | – | – | – | – |
| ERPYKG (not fully specified (C-terminus)) [peptide synthesized on A-Totda-Toyopearl resin] | 0.23 | 0.41 | 0.23 | 0.99 | 0.26 | 2.38 | bound thrombin | – | – | – | – | – | – |
| FEPANP (not fully specified (C-terminus)) [peptide synthesized on A-Totda-Toyopearl resin] | 0.00 | 0.15 | 0.00 | 0.29 | 0.10 | 0.45 | bound thrombin | – | – | – | – | – | – |
| GFRKGP (not fully specified (C-terminus)) [peptide synthesized on A-Totda-Toyopearl resin] | 0.12 | 0.41 | 0.15 | 0.77 | 0.25 | 1.71 | bound thrombin | – | – | – | – | – | – |
| GFRNGP [GERNGP] | 0.00 | 0.71 | 0.00 | 1.42 | 0.13 | 2.73 | bound thrombin | – | – | – | – | – | – |
| HQLWGSH | np | 0.58 | np | 0.95 | np | 1.76 | enhanced binding | – | – | – | – | – | – |
| LFAPTL | np | 0.18 | np | 0.44 | np | 1.25 | bound thrombin | – | – | – | – | – | – |
| LTPFAV (not fully specified (C-terminus)) [peptide synthesized on A-Totda-Toyopearl resin] | np | 0.00 | np | 0.00 | np | 0.00 | – | – | – | – | – | – | – |
| PFAPTL | np | np | np | np | np | np | not | – | – | – | – | – | – |
| PFPYAW (not fully specified (C-terminus)) [peptide synthesized on A-Totda-Toyopearl resin] | np | 0.50 | np | 1.05 | np | 1.10 | bound thrombin | – | – | – | – | – | – |
| PFPYGW (not fully specified (C-terminus)) [peptide synthesized on A-Totda-Toyopearl resin] | np | 0.47 | np | 0.79 | np | 1.37 | bound thrombin | – | – | – | – | – | – |
| PFPYVW (not fully specified (C-terminus)) [peptide synthesized on A-Totda-Toyopearl resin] | np | 2.82 | np | 2.14 | np | 3.32 | bound thrombin | not in a dose dependent manner | – | – | – | – | – |
| RQLWQSH [RQLWGSH, variant of QLWGSH with added amino-terminal arginine, on A-Totda-Toyopearl resin] | np | 0.75 | np | 1.49 | np | 2.83 | enhanced binding | – | – | – | – | – | – |
| SVRPFL (not fully specified (C-terminus)) [peptide synthesized on A-Totda-Toyopearl resin] | np | 0.57 | np | 0.71 | np | 2.06 | bound thrombin | – | – | – | – | – | – |
| VFPYAW (not fully specified (C-terminus)) [peptide synthesized on A-Totda-Toyopearl resin] | 0.16 | 1.48 | 0.18 | 1.57 | np | 3.59 | bound thrombin | – | – | – | – | – | – |
| VFPYGW (not fully specified (C-terminus)) [peptide synthesized on A-Totda-Toyopearl resin] | np | 0.88 | np | 1.46 | np | 2.01 | bound thrombin | – | – | – | – | – | – |
| VFPYVW (not fully specified (C-terminus)) [peptide synthesized on A-Totda-Toyopearl resin] | np | 0.81 | np | 1.21 | np | 1.81 | bound thrombin | – | – | – | – | – | – |
| VTPFAV (not fully specified (C-terminus)) [peptide synthesized on A-Totda-Toyopearl resin] | np | 0.00 | np | 0.00 | np | 0.00 | – | – | – | – | – | – | – |
| YFPGPYL (not fully specified (C-terminus)) | – | – | – | – | – | – | bound thrombin | dose dependent increase | 2.10 | 2.93 | 4.72 | at least 72% | thrombin bound |
| YTPFAV (not fully specified (C-terminus)) [peptide synthesized on A-Totda-Toyopearl resin] | np | 0.16 | np | 0.28 | np | 0.34 | bound thrombin | – | – | – | – | – | – |
